This is an account of results in patent US5319071, “Soluble interleukin-1 receptors” (Immunex Corporation, dated 1994).

The target of assay [1] is native murine IL-1 receptor of EL-4 6.1 C10 cells (murine).
Assay [2] deals with T1, recombinant human IL-1α (polypeptide composed of the C-terminal 157 residues of IL-1α, Mr 17,500 form) (human, UniProt P01583, 125I label (chloramine-T method, ca 1 atom of iodine per IL-1α molecule) where used as tracer; fluorescein isothiocyanate conjugate in flow cytometry; unlabeled as competitor; coupled to Sepharose 4B …).
T1 sequence: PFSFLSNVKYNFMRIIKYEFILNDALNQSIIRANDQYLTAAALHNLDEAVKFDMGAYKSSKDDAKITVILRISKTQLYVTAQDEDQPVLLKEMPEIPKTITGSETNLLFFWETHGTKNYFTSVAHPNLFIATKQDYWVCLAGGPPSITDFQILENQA
As to the kind of experiment: direct binding of 125I-IL-1α to COS cells transfected with clone 78, Scatchard analysis.

Assay [3] deals with T1, recombinant human IL-1α (polypeptide …). As to the kind of experiment: direct binding of 125I-IL-1α to EL-4 6.1 C10 cells, Scatchard analysis.
Assay [4] shares this target. As to the kind of experiment: receptor in Triton X-100 solution (diluted extract) inhibiting 125I-IL-1α binding to extract on nitrocellulose; competitive inhibition model.

In assay [1], “recombinant human IL-1α (polypeptide composed of the C-terminal 157 residues of IL-1α, Mr 17,500 form) (from UniProt P01583) (ligand)” showed an IL-2 production from EL-4 6.1 C10 cells of 100%.

B1: recombinant murine IL-1 receptor (clone 78 in pDC201) expressed on COS cells (receptor)
chain: LEIDVCTEYPNQIVLFLSVNEIDIRKCPLTPNKMHGDTIIWYKNDSKTPISADRDSRIHQQNEHLWFVPAKVEDSGYYYCIVRNSTYCLKTKVTVTVLENDPGLCYSTQATFPQRLHIAGDGSLVCPYVSYFKDENNELPEVQWYKNCKPLLLDNVSFFGVKDKLLVRNVAEEHRGDYICRMSYTFRGKQYPVTRVIQFITIDENKRDRPVILSPRNETIEADPGSMIQLICNVTGQFSDLVYWKWNGSEIEWNDPFLAEDYQFVEHPSTKRKYTLITTLNISEVKSQFYRYPFICVVKNTNIFESAHVQLIYPVPDFKNYLIGGFIILTATIVCCVCIYKVFKVDIVLWYRDSCSGFLPSKASDGKTYDAYILYPKTLGEGSFSDLDTFVFKLLPEVLEGQFGYKLFIYGRDDYVGEDTIEVTNENVKKSRRLIIILVRDMGGFSWLGQSSEEQIAIYNALIQEGIKIVLLELEKIQDYEKMPDSIQFIKQKHGVICWSGDFQERPQSAKTRFWKNLRYQMPAQRRSPLSKHRLLTLDPVRDTKEKLPAATHLPLG
As for B1, in assay [2], the Ka was 3e+09 M⁻¹.

B2: native murine IL-1 receptor of EL-4 6.1 C10 cells (receptor)
chain: B1 chain
modifications: glycoprotein (N-linked carbohydrate), Mr 82,000
For B2, the Ka in assay [3] was 4.3e+09 M⁻¹; in assay [4], 4.5e+09 M⁻¹.
